From PMC9352680, “A comprehensive thermodynamic model for RNA binding by the Saccharomyces cerevisiae Pumilio protein PUF4”

Molecular target: T1, PUF4 RNA-binding domain (Saccharomyces cerevisiae, UniProt P25339 537-888)
T1 sequence: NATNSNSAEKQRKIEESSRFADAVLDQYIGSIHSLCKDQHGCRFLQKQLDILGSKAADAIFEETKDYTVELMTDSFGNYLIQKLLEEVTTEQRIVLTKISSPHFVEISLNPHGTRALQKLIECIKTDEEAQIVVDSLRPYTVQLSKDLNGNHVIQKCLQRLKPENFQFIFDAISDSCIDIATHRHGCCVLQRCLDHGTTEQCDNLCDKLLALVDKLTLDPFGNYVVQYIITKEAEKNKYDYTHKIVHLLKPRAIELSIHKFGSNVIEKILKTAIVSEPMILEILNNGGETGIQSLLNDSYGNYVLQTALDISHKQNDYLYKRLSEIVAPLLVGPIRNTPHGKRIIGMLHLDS
Test: Mg; RNA-MaP; 20 mM Na-HEPES pH 7.4, 30 mM KOAc, 0.75 mM MgCl2, 0.1% Tween-20, 5% glycerol, 0.1 mg/mL BSA, 2 mM DTT; 25 C; 0.0125-409.6 nM protein
Conditions: tags: N-His6-TEV cleaved; C-SNAP kept, Cy3B-labelled; label: tethered on chip by stalled RNA polymerase

UCUCUUUGUAUUAUGAUCUCUU (ssRNA) [Ia_S1_P5E.1_K5.1_C5.1_H5.1_A5.1_F5.1_[T9G]_T5.1]
Kd: 0.0153 µM

UCUCUUUCUAUAUUAUUAACUCUCUU (ssRNA) [Id_ii_S1_P5E.3_K5.2_C5.2_[C-2T]_[T-1C]_H5.2_A5.1_F5.1_T5.2_[T11A]_[A12C]]
Kd: 0.581 µM

UCUCUUUCUAUAUUAUUAUUUCUCUU (ssRNA) [Id_ii_S1_P5E.3_K5.2_C5.2_[C-2T]_[T-1C]_H5.2_A5.1_F5.1_T5.2_[A12T]]
Kd: 0.402 µM

UCUCUUUUUAUAUUAUUAGCUCUCUU (ssRNA) [Id_ii_S1_P5E.3_K5.2_C5.2_[C-2T]_H5.2_A5.1_F5.1_T5.2_[T11G]_[A12C]]
Kd: 0.16 µM

UCUCUUUAUAUAUUAUUAAUUCUCUU (ssRNA) [Id_ii_S1_P5E.3_K5.2_C5.2_[C-2T]_[T-1A]_H5.2_A5.1_F5.1_T5.2_[T11A]_[A12T]]
Kd: 0.021 µM

UCUCUUCAUGUAUUAUUAGCUCUCUU (ssRNA) [Id_ii_S1_P5E.2_K5.1_C5.2_[T-1A]_H5.1_A5.1_F5.1_T5.2_[T11G]_[A12C]]
Kd: 0.00339 µM

UCUCUUCAUGUAUUAUUAUUUCUCUU (ssRNA) [Id_ii_S1_P5E.2_K5.1_C5.2_[T-1A]_H5.1_A5.1_F5.1_T5.2_[A12T]]
Kd: 0.00994 µM

UCUCUUGCUAUAUUAUUAUCUCUCUU (ssRNA) [Id_ii_S1_P5E.3_K5.2_C5.2_[C-2G]_[T-1C]_H5.2_A5.1_F5.1_T5.2_[A12C]]
Kd: 0.307 µM

UCUCUUUGUAUAUUAUUAUCUCUCUU (ssRNA) [Id_ii_S1_P5E.3_K5.2_C5.2_[C-2T]_[T-1G]_H5.2_A5.1_F5.1_T5.2_[A12C]]
Kd: 0.000576 µM

UCUCUUCAUGUAUUAUUAUCUCUCUU (ssRNA) [Id_ii_S1_P5E.2_K5.1_C5.2_[T-1A]_H5.1_A5.1_F5.1_T5.2_[A12C]]
Kd: 0.00759 µM

UCUCUUUAUAUAUUAUUACCUCUCUU (ssRNA) [Id_ii_S1_P5E.3_K5.2_C5.2_[C-2T]_[T-1A]_H5.2_A5.1_F5.1_T5.2_[T11C]_[A12C]]
Kd: 0.0141 µM

UCUCUUUGUAUCAUAUCUCUU (ssRNA) [Ic_S1_P4E.1_K4.1_C4.1_H4.1_A4.1_[A6C]_[T7A]_F4.1_T4.1]
Kd: 0.00104 µM

UCUCUUCAUGUAUUAUUAAUUCUCUU (ssRNA) [Id_ii_S1_P5E.2_K5.1_C5.2_[T-1A]_H5.1_A5.1_F5.1_T5.2_[T11A]_[A12T]]
Kd: 0.00768 µM

UCUCUUCUUGUAUUAUUAAUUCUCUU (ssRNA) [Id_ii_S1_P5E.2_K5.1_C5.2_H5.1_A5.1_F5.1_T5.2_[T11A]_[A12T]]
Kd: 0.0088 µM

UCUCUUGCUAUAUUAUUACGUCUCUU (ssRNA) [Id_ii_S1_P5E.3_K5.2_C5.2_[C-2G]_[T-1C]_H5.2_A5.1_F5.1_T5.2_[T11C]_[A12G]]
Kd: 0.549 µM

UCUCUUUAUAUAUUAUUACGUCUCUU (ssRNA) [Id_ii_S1_P5E.3_K5.2_C5.2_[C-2T]_[T-1A]_H5.2_A5.1_F5.1_T5.2_[T11C]_[A12G]]
Kd: 0.0181 µM

UCUCUUUGUAUGCUAUCUCUU (ssRNA) [Ib_S1_P4E.1_K4.1_C4.1_H4.1_A4.1_[A6G]_[T7C]_F4.1_T4.1]
Kd: 0.00791 µM

UCUCUUUCUAUAUUAUUAAUUCUCUU (ssRNA) [Id_ii_S1_P5E.3_K5.2_C5.2_[C-2T]_[T-1C]_H5.2_A5.1_F5.1_T5.2_[T11A]_[A12T]]
Kd: 0.615 µM

UCUCUUUGUAUCGUAUCUCUU (ssRNA) [Ic_S1_P4E.1_K4.1_C4.1_H4.1_A4.1_[A6C]_[T7G]_F4.1_T4.1]
Kd: 0.0123 µM

UCUCUUUCUAUAUUAUUACAUCUCUU (ssRNA) [Id_ii_S1_P5E.3_K5.2_C5.2_[C-2T]_[T-1C]_H5.2_A5.1_F5.1_T5.2_[T11C]]
Kd: 0.63 µM

UCUCUUUGUAUAUUAUUAGCUCUCUU (ssRNA) [Id_ii_S1_P5E.3_K5.2_C5.2_[C-2T]_[T-1G]_H5.2_A5.1_F5.1_T5.2_[T11G]_[A12C]]
Kd: 0.000703 µM

UCUCUUUAUAUAUUAUUAAAUCUCUU (ssRNA) [Id_ii_S1_P5E.3_K5.2_C5.2_[C-2T]_[T-1A]_H5.2_A5.1_F5.1_T5.2_[T11A]]
Kd: 0.0254 µM

UCUCUUGCUAUAUUAUUACCUCUCUU (ssRNA) [Id_ii_S1_P5E.3_K5.2_C5.2_[C-2G]_[T-1C]_H5.2_A5.1_F5.1_T5.2_[T11C]_[A12C]]
Kd: 0.34 µM

UCUCUUUAUAUAUUAUUAGUUCUCUU (ssRNA) [Id_ii_S1_P5E.3_K5.2_C5.2_[C-2T]_[T-1A]_H5.2_A5.1_F5.1_T5.2_[T11G]_[A12T]]
Kd: 0.0222 µM

UCUCUUCUUGUAUUAUUAUUUCUCUU (ssRNA) [Id_ii_S1_P5E.2_K5.1_C5.2_H5.1_A5.1_F5.1_T5.2_[A12T]]
Kd: 0.00409 µM

UCUCUUCUUGUAUUAUUAUGUCUCUU (ssRNA) [Id_ii_S1_P5E.2_K5.1_C5.2_H5.1_A5.1_F5.1_T5.2_[A12G]]
Kd: 0.00583 µM

UCUCUUUGUAUAUUAUUAAUUCUCUU (ssRNA) [Id_ii_S1_P5E.3_K5.2_C5.2_[C-2T]_[T-1G]_H5.2_A5.1_F5.1_T5.2_[T11A]_[A12T]]
Kd: 0.000615 µM

UCUCUUGUUAUAUUAUUACCUCUCUU (ssRNA) [Id_ii_S1_P5E.3_K5.2_C5.2_[C-2G]_H5.2_A5.1_F5.1_T5.2_[T11C]_[A12C]]
Kd: 0.009 µM

UCUCUUCCUGUAUUAUUAUUUCUCUU (ssRNA) [Id_ii_S1_P5E.2_K5.1_C5.2_[T-1C]_H5.1_A5.1_F5.1_T5.2_[A12T]]
Kd: 0.00747 µM

UCUCUUUAUAUAUUAUUACUUCUCUU (ssRNA) [Id_ii_S1_P5E.3_K5.2_C5.2_[C-2T]_[T-1A]_H5.2_A5.1_F5.1_T5.2_[T11C]_[A12T]]
Kd: 0.0133 µM

UCUCUUUCUAUAUUAUUACGUCUCUU (ssRNA) [Id_ii_S1_P5E.3_K5.2_C5.2_[C-2T]_[T-1C]_H5.2_A5.1_F5.1_T5.2_[T11C]_[A12G]]
Kd: 0.494 µM
